Source: PMC11470960 (Immunity, 2024)

What was measured:
PLD3 (active) = molecular target: T1, PLD3 (active) (Homo sapiens, UniProt Q8IV08 60-490); test: cryo-EM
T1 sequence: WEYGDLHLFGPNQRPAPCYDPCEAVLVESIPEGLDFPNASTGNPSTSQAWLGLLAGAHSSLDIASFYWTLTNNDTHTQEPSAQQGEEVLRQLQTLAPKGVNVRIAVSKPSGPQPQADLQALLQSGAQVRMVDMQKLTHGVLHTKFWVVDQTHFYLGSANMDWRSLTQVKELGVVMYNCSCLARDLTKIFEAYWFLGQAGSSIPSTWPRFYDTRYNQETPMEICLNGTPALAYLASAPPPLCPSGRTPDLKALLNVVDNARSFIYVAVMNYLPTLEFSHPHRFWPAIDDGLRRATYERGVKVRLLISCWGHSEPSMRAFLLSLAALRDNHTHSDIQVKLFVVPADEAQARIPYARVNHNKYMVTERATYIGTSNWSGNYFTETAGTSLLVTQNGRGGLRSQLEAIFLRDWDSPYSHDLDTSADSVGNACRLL

PLD3(H201N,H416N) = molecular target: T2, PLD3(H201N,H416N) (Homo sapiens, UniProt Q8IV08 60-490, H201N;H416N); test: fluorescence anisotropy
T2 sequence: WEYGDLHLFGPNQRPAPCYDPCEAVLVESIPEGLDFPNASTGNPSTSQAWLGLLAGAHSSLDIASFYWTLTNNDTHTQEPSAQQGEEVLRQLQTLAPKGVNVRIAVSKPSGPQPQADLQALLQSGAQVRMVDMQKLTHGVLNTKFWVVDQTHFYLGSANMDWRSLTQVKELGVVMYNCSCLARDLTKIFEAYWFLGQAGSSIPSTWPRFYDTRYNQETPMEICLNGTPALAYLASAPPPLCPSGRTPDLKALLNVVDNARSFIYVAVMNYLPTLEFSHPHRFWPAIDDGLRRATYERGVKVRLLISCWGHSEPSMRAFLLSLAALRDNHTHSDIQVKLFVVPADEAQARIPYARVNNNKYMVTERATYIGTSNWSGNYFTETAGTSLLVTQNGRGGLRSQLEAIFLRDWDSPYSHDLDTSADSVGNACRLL

SEC = molecular target: the molecule itself; test: SEC

## UCUCUCUCUCUCUCUCUCUC (ssRNA, phosphorothioate backbone) [(rU*rC*)10 ssRNA]
PLD3 (active)
  binding result: binds

## AGCUUAACCUG (ssRNA) [RNA9.2s 11 nt]
PLD3(H201N,H416N)
  binding result: no binding

B1: PLD3(V232M), soluble catalytic domain (enzyme, human)
chain: WEYGDLHLFGPNQRPAPCYDPCEAVLVESIPEGLDFPNASTGNPSTSQAWLGLLAGAHSSLDIASFYWTLTNNDTHTQEPSAQQGEEVLRQLQTLAPKGVNVRIAVSKPSGPQPQADLQALLQSGAQVRMVDMQKLTHGVLHTKFWVVDQTHFYLGSANMDWRSLTQVKELGMVMYNCSCLARDLTKIFEAYWFLGQAGSSIPSTWPRFYDTRYNQETPMEICLNGTPALAYLASAPPPLCPSGRTPDLKALLNVVDNARSFIYVAVMNYLPTLEFSHPHRFWPAIDDGLRRATYERGVKVRLLISCWGHSEPSMRAFLLSLAALRDNHTHSDIQVKLFVVPADEAQARIPYARVNHNKYMVTERATYIGTSNWSGNYFTETAGTSLLVTQNGRGGLRSQLEAIFLRDWDSPYSHDLDTSADSVGNACRLL
SEC
  binding result: binds
